Square brackets hold non-standard residues; d marks the D form. Ends that are not written are not given here. Aib = CC(C)(N)C(=O)O
How the values were obtained:
[1] = target: human glucagon-like peptide-1 receptor (human, UniProt P43220); experiment: cell-based or functional assay
[2] = target: T1, human glucose-dependent insulinotropic peptide receptor (human, UniProt P48546); experiment: cell-based or functional assay
T1 sequence: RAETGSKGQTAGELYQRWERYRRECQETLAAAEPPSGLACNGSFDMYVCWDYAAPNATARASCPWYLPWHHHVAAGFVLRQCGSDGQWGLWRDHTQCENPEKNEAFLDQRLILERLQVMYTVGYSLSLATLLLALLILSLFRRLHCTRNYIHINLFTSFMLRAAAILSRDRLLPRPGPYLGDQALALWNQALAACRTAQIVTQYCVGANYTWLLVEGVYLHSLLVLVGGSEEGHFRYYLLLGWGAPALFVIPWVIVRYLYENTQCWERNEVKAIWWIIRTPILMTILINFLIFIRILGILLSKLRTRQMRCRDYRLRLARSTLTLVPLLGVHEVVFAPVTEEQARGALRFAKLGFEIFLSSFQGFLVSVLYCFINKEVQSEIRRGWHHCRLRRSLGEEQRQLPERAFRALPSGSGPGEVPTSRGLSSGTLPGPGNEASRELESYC

Binder | Activity for human GLP-1R (EC50 nM), cAMP HTRF [1] | Activity for human GIPR (EC50 nM), cAMP HTRF [2]
Y[Aib]EGTFTSDYSIYLD[Aib]IAAQEFVQWLLAGGPSSGAPPPSK-NH2 (N-terminus assumed; SMILES CC[C@H](C)[C@H](NC(=O)[C@H](CO)NC(=O)[C@H](Cc1ccc(O)cc1)NC(=O)[C@H](CC(=O)O)NC(=O)[C@H](CO)NC(=O)[C@@H](NC(=O)[C@H](Cc1ccccc1)NC(=O)[C@@H](NC(=O)CNC(=O)[C@H](CCC(=O)O)NC(=O)C(C)(C)NC(=O)[C@@H](N)Cc1ccc(O)cc1)[C@@H](C)O)[C@@H](C)O)C(=O)N[C@@H](Cc1ccc(O)cc1)C(=O)N[C@@H](CC(C)C)C(=O)N[C@@H](CC(=O)O)C(=O)NC(C)(C)C(=O)N[C@H](C(=O)N[C@@H](C)C(=O)N[C@@H](C)C(=O)N[C@@H](CCC(N)=O)C(=O)N[C@@H](CCC(=O)O)C(=O)N[C@@H](Cc1ccccc1)C(=O)N[C@H](C(=O)N[C@@H](CCC(N)=O)C(=O)N[C@@H](Cc1c[nH]c2ccccc12)C(=O)N[C@@H](CC(C)C)C(=O)N[C@@H](CC(C)C)C(=O)N[C@@H](C)C(=O)NCC(=O)NCC(=O)N1CCC[C@H]1C(=O)N[C@@H](CO)C(=O)N[C@@H](CO)C(=O)NCC(=O)N[C@@H](C)C(=O)N1CCC[C@H]1C(=O)N1CCC[C@H]1C(=O)N1CCC[C@H]1C(=O)N[C@@H](CO)C(=O)N[C@@H](CCCCN)C(N)=O)C(C)C)[C@@H](C)CC) [Compound No. 22] | 0.051 nM | 0.018 nM
Y[Aib]EGTFTSDYSIYLE[Aib]IAAQEFVNWLLAGGPSSGAPPPSK-NH2 (N-terminus assumed; SMILES CC[C@H](C)[C@H](NC(=O)[C@H](CO)NC(=O)[C@H](Cc1ccc(O)cc1)NC(=O)[C@H](CC(=O)O)NC(=O)[C@H](CO)NC(=O)[C@@H](NC(=O)[C@H](Cc1ccccc1)NC(=O)[C@@H](NC(=O)CNC(=O)[C@H](CCC(=O)O)NC(=O)C(C)(C)NC(=O)[C@@H](N)Cc1ccc(O)cc1)[C@@H](C)O)[C@@H](C)O)C(=O)N[C@@H](Cc1ccc(O)cc1)C(=O)N[C@@H](CC(C)C)C(=O)N[C@@H](CCC(=O)O)C(=O)NC(C)(C)C(=O)N[C@H](C(=O)N[C@@H](C)C(=O)N[C@@H](C)C(=O)N[C@@H](CCC(N)=O)C(=O)N[C@@H](CCC(=O)O)C(=O)N[C@@H](Cc1ccccc1)C(=O)N[C@H](C(=O)N[C@@H](CC(N)=O)C(=O)N[C@@H](Cc1c[nH]c2ccccc12)C(=O)N[C@@H](CC(C)C)C(=O)N[C@@H](CC(C)C)C(=O)N[C@@H](C)C(=O)NCC(=O)NCC(=O)N1CCC[C@H]1C(=O)N[C@@H](CO)C(=O)N[C@@H](CO)C(=O)NCC(=O)N[C@@H](C)C(=O)N1CCC[C@H]1C(=O)N1CCC[C@H]1C(=O)N1CCC[C@H]1C(=O)N[C@@H](CO)C(=O)N[C@@H](CCCCN)C(N)=O)C(C)C)[C@@H](C)CC) [Compound No. 18] | 0.022 nM | 0.012 nM
Y[Aib]EGTFTSDYSIYLEKEA[Aib]KEFVNWLLAGGPSSGAPPPSK-NH2 (N-terminus assumed; SMILES CC[C@H](C)[C@H](NC(=O)[C@H](CO)NC(=O)[C@H](Cc1ccc(O)cc1)NC(=O)[C@H](CC(=O)O)NC(=O)[C@H](CO)NC(=O)[C@@H](NC(=O)[C@H](Cc1ccccc1)NC(=O)[C@@H](NC(=O)CNC(=O)[C@H](CCC(=O)O)NC(=O)C(C)(C)NC(=O)[C@@H](N)Cc1ccc(O)cc1)[C@@H](C)O)[C@@H](C)O)C(=O)N[C@@H](Cc1ccc(O)cc1)C(=O)N[C@@H](CC(C)C)C(=O)N[C@@H](CCC(=O)O)C(=O)N[C@@H](CCCCN)C(=O)N[C@@H](CCC(=O)O)C(=O)N[C@@H](C)C(=O)NC(C)(C)C(=O)N[C@@H](CCCCN)C(=O)N[C@@H](CCC(=O)O)C(=O)N[C@@H](Cc1ccccc1)C(=O)N[C@H](C(=O)N[C@@H](CC(N)=O)C(=O)N[C@@H](Cc1c[nH]c2ccccc12)C(=O)N[C@@H](CC(C)C)C(=O)N[C@@H](CC(C)C)C(=O)N[C@@H](C)C(=O)NCC(=O)NCC(=O)N1CCC[C@H]1C(=O)N[C@@H](CO)C(=O)N[C@@H](CO)C(=O)NCC(=O)N[C@@H](C)C(=O)N1CCC[C@H]1C(=O)N1CCC[C@H]1C(=O)N1CCC[C@H]1C(=O)N[C@@H](CO)C(=O)N[C@@H](CCCCN)C(N)=O)C(C)C) [Compound No. 17] | 0.01 nM | 0.057 nM
Y[Aib]EGTFTSDYSIYLDKIAAQEFVNWLLAGGPSSGAPPPSK-NH2 (N-terminus assumed; SMILES CC[C@H](C)[C@H](NC(=O)[C@H](CCCCN)NC(=O)[C@H](CC(=O)O)NC(=O)[C@H](CC(C)C)NC(=O)[C@H](Cc1ccc(O)cc1)NC(=O)[C@@H](NC(=O)[C@H](CO)NC(=O)[C@H](Cc1ccc(O)cc1)NC(=O)[C@H](CC(=O)O)NC(=O)[C@H](CO)NC(=O)[C@@H](NC(=O)[C@H](Cc1ccccc1)NC(=O)[C@@H](NC(=O)CNC(=O)[C@H](CCC(=O)O)NC(=O)C(C)(C)NC(=O)[C@@H](N)Cc1ccc(O)cc1)[C@@H](C)O)[C@@H](C)O)[C@@H](C)CC)C(=O)N[C@@H](C)C(=O)N[C@@H](C)C(=O)N[C@@H](CCC(N)=O)C(=O)N[C@@H](CCC(=O)O)C(=O)N[C@@H](Cc1ccccc1)C(=O)N[C@H](C(=O)N[C@@H](CC(N)=O)C(=O)N[C@@H](Cc1c[nH]c2ccccc12)C(=O)N[C@@H](CC(C)C)C(=O)N[C@@H](CC(C)C)C(=O)N[C@@H](C)C(=O)NCC(=O)NCC(=O)N1CCC[C@H]1C(=O)N[C@@H](CO)C(=O)N[C@@H](CO)C(=O)NCC(=O)N[C@@H](C)C(=O)N1CCC[C@H]1C(=O)N1CCC[C@H]1C(=O)N1CCC[C@H]1C(=O)N[C@@H](CO)C(=O)N[C@@H](CCCCN)C(N)=O)C(C)C) [Compound No. 20] | 0.027 nM | 0.008 nM
Y[Aib]EGTFTSDYSIYLDKEAAKEFVNWLLAGGPSSGAPPPSK-NH2 (N-terminus assumed; SMILES CC[C@H](C)[C@H](NC(=O)[C@H](CO)NC(=O)[C@H](Cc1ccc(O)cc1)NC(=O)[C@H](CC(=O)O)NC(=O)[C@H](CO)NC(=O)[C@@H](NC(=O)[C@H](Cc1ccccc1)NC(=O)[C@@H](NC(=O)CNC(=O)[C@H](CCC(=O)O)NC(=O)C(C)(C)NC(=O)[C@@H](N)Cc1ccc(O)cc1)[C@@H](C)O)[C@@H](C)O)C(=O)N[C@@H](Cc1ccc(O)cc1)C(=O)N[C@@H](CC(C)C)C(=O)N[C@@H](CC(=O)O)C(=O)N[C@@H](CCCCN)C(=O)N[C@@H](CCC(=O)O)C(=O)N[C@@H](C)C(=O)N[C@@H](C)C(=O)N[C@@H](CCCCN)C(=O)N[C@@H](CCC(=O)O)C(=O)N[C@@H](Cc1ccccc1)C(=O)N[C@H](C(=O)N[C@@H](CC(N)=O)C(=O)N[C@@H](Cc1c[nH]c2ccccc12)C(=O)N[C@@H](CC(C)C)C(=O)N[C@@H](CC(C)C)C(=O)N[C@@H](C)C(=O)NCC(=O)NCC(=O)N1CCC[C@H]1C(=O)N[C@@H](CO)C(=O)N[C@@H](CO)C(=O)NCC(=O)N[C@@H](C)C(=O)N1CCC[C@H]1C(=O)N1CCC[C@H]1C(=O)N1CCC[C@H]1C(=O)N[C@@H](CO)C(=O)N[C@@H](CCCCN)C(N)=O)C(C)C) [Compound No. 19] | 0.024 nM | 0.02 nM
Y[Aib]EGTFTSDYSIYLEKEAAKEFVNWLLAQKPSSGAPPPSK-NH2 (N-terminus assumed; SMILES CC[C@H](C)[C@H](NC(=O)[C@H](CO)NC(=O)[C@H](Cc1ccc(O)cc1)NC(=O)[C@H](CC(=O)O)NC(=O)[C@H](CO)NC(=O)[C@@H](NC(=O)[C@H](Cc1ccccc1)NC(=O)[C@@H](NC(=O)CNC(=O)[C@H](CCC(=O)O)NC(=O)C(C)(C)NC(=O)[C@@H](N)Cc1ccc(O)cc1)[C@@H](C)O)[C@@H](C)O)C(=O)N[C@@H](Cc1ccc(O)cc1)C(=O)N[C@@H](CC(C)C)C(=O)N[C@@H](CCC(=O)O)C(=O)N[C@@H](CCCCN)C(=O)N[C@@H](CCC(=O)O)C(=O)N[C@@H](C)C(=O)N[C@@H](C)C(=O)N[C@@H](CCCCN)C(=O)N[C@@H](CCC(=O)O)C(=O)N[C@@H](Cc1ccccc1)C(=O)N[C@H](C(=O)N[C@@H](CC(N)=O)C(=O)N[C@@H](Cc1c[nH]c2ccccc12)C(=O)N[C@@H](CC(C)C)C(=O)N[C@@H](CC(C)C)C(=O)N[C@@H](C)C(=O)N[C@@H](CCC(N)=O)C(=O)N[C@@H](CCCCN)C(=O)N1CCC[C@H]1C(=O)N[C@@H](CO)C(=O)N[C@@H](CO)C(=O)NCC(=O)N[C@@H](C)C(=O)N1CCC[C@H]1C(=O)N1CCC[C@H]1C(=O)N1CCC[C@H]1C(=O)N[C@@H](CO)C(=O)N[C@@H](CCCCN)C(N)=O)C(C)C) [Compound No. 23] | 0.059 nM | 0.02 nM
